Reference: the supplement of paper PMC10065799, “High-throughput profiling of sequence recognition by tyrosine kinases and SH2 domains using bacterial peptide display” (eLife, 2023)

Assays:
SHP2-C SH2 = assay: SH2 binding enrichment of the phosphorylated peptide, bacterial display (enrichment ratio); higher = better substrate or ligand; peptides without Tyr show the background
c-Src SH2 = assay: as above
Grb2 SH2 = Grb2 SH2 (UniProt P62993); assay: as above
EPHB2 = EPHB2 (UniProt P29323); assay: phosphorylation enrichment, bacterial display (enrichment ratio); higher = better substrate or ligand; peptides without Tyr show the background
Sequence of EPHB2 (P29323 whole entry, looked up): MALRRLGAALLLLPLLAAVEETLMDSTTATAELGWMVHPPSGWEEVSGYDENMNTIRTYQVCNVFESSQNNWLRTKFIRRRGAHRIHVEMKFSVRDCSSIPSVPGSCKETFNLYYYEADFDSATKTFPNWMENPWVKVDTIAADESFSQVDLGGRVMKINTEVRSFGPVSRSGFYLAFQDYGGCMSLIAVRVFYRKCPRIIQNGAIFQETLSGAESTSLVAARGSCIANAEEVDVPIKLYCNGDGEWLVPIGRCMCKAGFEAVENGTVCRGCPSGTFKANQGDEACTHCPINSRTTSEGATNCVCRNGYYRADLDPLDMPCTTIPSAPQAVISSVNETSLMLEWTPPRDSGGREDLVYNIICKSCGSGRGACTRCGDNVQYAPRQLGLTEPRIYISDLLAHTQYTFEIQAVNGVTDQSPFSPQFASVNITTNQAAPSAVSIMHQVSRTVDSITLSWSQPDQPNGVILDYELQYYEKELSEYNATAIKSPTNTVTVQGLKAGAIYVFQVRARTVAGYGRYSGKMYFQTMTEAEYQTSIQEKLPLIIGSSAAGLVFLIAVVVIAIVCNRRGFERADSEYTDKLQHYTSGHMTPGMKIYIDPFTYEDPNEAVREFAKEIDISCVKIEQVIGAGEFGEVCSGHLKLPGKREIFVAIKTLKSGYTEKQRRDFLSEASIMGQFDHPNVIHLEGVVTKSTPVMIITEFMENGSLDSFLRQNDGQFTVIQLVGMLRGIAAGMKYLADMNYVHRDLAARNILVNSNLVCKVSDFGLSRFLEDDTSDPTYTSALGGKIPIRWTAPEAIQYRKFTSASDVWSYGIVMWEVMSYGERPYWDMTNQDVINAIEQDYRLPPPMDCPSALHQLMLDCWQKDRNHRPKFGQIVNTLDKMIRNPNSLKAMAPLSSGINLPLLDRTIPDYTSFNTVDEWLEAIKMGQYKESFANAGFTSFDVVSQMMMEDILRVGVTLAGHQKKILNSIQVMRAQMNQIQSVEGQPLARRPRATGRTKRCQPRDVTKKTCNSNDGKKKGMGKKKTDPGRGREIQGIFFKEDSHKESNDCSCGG

Fes = Fes (UniProt P07332); assay: as above
Sequence of Fes (P07332 whole entry, looked up): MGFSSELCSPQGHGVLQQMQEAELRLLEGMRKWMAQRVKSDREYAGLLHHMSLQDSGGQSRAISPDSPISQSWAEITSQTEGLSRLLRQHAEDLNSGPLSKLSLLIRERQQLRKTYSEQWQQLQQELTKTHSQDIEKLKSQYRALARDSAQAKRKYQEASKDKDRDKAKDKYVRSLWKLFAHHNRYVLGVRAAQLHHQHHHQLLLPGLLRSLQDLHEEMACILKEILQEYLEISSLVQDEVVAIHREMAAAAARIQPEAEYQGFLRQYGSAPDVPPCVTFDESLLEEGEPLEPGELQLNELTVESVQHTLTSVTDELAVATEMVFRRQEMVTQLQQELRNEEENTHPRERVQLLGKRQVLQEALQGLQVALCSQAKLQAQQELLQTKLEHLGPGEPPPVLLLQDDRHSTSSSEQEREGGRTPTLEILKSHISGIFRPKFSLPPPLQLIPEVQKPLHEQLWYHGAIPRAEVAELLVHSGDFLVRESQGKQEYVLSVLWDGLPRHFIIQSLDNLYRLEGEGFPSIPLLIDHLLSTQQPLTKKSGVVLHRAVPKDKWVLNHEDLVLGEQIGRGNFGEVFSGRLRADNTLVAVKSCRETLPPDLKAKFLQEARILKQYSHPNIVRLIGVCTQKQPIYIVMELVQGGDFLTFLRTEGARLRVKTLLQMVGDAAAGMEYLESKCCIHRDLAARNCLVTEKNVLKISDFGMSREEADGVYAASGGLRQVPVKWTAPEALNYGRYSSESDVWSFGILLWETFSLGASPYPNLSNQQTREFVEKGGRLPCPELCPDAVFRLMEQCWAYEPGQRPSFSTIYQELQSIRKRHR

c-Src = assay: as above
AncSZ = assay: as above
EPHB1 = EPHB1 (UniProt P54762); assay: as above
Jak2 = Jak2 (UniProt O60674); assay: as above
Sequence of Jak2 (O60674 whole entry, looked up): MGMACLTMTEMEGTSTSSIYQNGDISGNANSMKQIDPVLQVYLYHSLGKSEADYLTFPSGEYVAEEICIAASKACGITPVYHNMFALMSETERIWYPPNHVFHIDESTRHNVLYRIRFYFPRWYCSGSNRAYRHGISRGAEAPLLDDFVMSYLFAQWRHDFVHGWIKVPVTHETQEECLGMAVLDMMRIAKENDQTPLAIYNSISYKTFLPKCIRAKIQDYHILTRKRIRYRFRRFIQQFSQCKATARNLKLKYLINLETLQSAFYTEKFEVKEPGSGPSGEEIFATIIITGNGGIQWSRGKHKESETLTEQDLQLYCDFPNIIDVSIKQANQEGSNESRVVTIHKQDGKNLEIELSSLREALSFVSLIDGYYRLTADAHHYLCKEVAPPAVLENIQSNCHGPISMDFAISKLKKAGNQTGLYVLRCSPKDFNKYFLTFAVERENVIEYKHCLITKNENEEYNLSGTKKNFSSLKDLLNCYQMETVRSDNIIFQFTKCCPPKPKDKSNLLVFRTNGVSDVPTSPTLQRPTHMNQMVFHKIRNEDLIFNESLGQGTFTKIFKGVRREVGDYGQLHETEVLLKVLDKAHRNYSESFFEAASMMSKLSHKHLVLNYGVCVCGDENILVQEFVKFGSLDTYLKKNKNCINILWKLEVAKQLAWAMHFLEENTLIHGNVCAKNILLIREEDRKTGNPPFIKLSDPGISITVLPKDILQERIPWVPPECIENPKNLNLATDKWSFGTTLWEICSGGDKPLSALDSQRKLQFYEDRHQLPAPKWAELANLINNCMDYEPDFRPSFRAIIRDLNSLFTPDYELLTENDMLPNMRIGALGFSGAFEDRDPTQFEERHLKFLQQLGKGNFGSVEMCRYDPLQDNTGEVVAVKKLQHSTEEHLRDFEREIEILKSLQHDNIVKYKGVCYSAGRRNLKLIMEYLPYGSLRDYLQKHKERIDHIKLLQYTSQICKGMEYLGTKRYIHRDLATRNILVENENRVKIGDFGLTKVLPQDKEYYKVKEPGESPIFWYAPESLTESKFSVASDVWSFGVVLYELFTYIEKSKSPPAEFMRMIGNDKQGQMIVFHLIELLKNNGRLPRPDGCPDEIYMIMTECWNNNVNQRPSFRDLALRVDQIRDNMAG

FGFR1 = FGFR1 (UniProt P11362); assay: as above
c-Abl (mouse) = assay: as above
Fyn = Fyn (UniProt P06241); assay: as above
Sequence of Fyn (P06241 whole entry, looked up): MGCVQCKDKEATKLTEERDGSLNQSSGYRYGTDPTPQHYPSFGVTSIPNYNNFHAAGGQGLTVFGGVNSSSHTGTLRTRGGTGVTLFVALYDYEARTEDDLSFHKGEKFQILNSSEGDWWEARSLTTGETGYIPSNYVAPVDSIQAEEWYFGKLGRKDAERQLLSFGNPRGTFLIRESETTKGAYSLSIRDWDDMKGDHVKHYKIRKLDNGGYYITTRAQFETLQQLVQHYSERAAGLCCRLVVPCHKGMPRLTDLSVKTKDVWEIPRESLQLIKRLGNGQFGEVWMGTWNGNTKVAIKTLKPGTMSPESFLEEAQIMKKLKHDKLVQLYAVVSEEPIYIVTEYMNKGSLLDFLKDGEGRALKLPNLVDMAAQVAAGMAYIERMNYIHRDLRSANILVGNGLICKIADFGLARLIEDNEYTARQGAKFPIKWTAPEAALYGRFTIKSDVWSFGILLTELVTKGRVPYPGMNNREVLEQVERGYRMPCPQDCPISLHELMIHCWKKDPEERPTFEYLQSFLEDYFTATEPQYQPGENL

Hck = Hck (UniProt P08631); assay: as above
Sequence of Hck (P08631 whole entry, looked up): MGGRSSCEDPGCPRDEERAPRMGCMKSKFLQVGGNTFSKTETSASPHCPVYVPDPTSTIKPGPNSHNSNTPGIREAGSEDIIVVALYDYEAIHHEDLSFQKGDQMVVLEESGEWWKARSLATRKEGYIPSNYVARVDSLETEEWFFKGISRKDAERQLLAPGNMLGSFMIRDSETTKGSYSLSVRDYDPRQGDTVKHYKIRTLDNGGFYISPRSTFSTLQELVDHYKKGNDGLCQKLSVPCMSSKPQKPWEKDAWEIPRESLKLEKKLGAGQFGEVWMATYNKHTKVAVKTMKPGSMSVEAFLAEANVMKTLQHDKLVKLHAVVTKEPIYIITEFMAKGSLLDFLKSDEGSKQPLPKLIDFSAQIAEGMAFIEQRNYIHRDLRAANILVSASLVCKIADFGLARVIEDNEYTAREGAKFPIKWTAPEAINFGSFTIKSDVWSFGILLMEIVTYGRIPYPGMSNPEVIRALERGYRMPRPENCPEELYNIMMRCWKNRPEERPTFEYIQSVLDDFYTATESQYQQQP

Fer (mouse) = assay: as above
FGFR3 = FGFR3 (UniProt P22607); assay: as above
Sequence of FGFR3 (P22607 whole entry, looked up): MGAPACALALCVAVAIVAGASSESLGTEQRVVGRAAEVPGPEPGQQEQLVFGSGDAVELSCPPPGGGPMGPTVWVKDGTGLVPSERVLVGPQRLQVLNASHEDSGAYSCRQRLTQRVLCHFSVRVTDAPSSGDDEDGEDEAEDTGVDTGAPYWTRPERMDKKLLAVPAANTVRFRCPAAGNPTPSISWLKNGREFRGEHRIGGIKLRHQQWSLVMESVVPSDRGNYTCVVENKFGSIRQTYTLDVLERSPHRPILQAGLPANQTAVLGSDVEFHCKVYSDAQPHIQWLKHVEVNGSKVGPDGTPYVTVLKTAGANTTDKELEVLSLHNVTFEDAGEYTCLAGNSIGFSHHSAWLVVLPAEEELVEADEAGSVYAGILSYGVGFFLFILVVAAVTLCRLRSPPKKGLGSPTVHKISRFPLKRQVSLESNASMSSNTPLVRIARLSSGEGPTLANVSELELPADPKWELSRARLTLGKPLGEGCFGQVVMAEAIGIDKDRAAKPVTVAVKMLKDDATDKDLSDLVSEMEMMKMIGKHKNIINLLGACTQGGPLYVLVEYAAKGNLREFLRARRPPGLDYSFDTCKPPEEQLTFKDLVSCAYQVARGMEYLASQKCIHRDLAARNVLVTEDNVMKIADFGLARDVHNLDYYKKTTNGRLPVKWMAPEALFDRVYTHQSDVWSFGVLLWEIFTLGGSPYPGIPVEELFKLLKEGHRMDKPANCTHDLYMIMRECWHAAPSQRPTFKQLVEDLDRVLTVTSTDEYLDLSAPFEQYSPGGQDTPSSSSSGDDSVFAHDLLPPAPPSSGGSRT

MERTK = MERTK (UniProt Q12866); assay: as above
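Wherever SH2 binding enrichment of the phosphorylated peptide, bacterial display is given: peptide library displayed on the E. coli surface as eCPX fusions, selected cells deep-sequenced, score is each peptide's frequency after selection divided by its frequency in the input.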
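Wherever phosphorylation enrichment, bacterial display is given: 11-residue human phosphosite peptides and single-mutation variants displayed on the E. coli surface, counted by deep sequencing, each peptide's frequency after selection divided by its frequency in the unselected input library; frequency after pTyr selection over input frequency; kinase dosed for 20-30% of maximal phosphorylation in three min.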

SH2 binding enrichment (SHP2-C SH2) | SH2 binding enrichment (c-Src SH2) | SH2 binding enrichment (Grb2 SH2) | Sequence | phosphorylation enrichment (EPHB2) | phosphorylation enrichment (Fes) | phosphorylation enrichment (c-Src) | phosphorylation enrichment (AncSZ) | phosphorylation enrichment (EPHB1) | phosphorylation enrichment (Jak2) | phosphorylation enrichment (FGFR1) | phosphorylation enrichment (c-Abl (mouse)) | phosphorylation enrichment (Fyn) | phosphorylation enrichment (Hck) | phosphorylation enrichment (Fer (mouse)) | phosphorylation enrichment (FGFR3) | phosphorylation enrichment (MERTK)
0.715 | 0.763 | 0.754 | QLDQRYLLVPE [DDX49_Y223] | 0.807 | 0.978 | 0.701 | 1.12 | 0.613 | 0.748 | 0.843 | 0.665 | 0.574 | 0.664 | 0.374 | 0.799 | 0.572
5.62 | 3.26 | 1.26 | QLQVFYATLDQ [MIPEP_Y579] | 1.99 | 2.19 | 3.92 | 1.74 | 1.09 | 2.12 | 1.12 | 2.27 | 1.8 | 3.38 | 2.77 | 1.34 | 7.63
0.758 | 0.558 | 0.974 | QMQNPYSRHSS [MUC13_Y501] | 0.416 | 0.584 | 0.472 | 0.521 | 0.363 | 0.468 | 0.572 | 0.57 | 0.418 | 0.544 | 0.648 | 0.495 | 0.346
0.756 | 0.685 | 0.869 | QMVGMYASSSM [AVPR2_Y124_Y128S] | 0.403 | 0.645 | 0.567 | 0.647 | 0.73 | 0.635 | 0.477 | 0.807 | 0.438 | 0.766 | 0.472 | 0.435 | 0.504
0.842 | 0.62 | 0.894 | QNVADYMRFLM [RPL5_Y207_YF] | 1.92 | 1.97 | 1.64 | 1.73 | 1.79 | 2.91 | 0.871 | 1.42 | 1.2 | 1.09 | 0.818 | 1.09 | 0.814
0.666 | 0.572 | 1.07 | QPTPGYEVGQR [TSC2_Y1788_E1783Q] | 0.474 | 0.759 | 0.329 | 0.637 | 0.454 | 0.444 | 0.609 | 0.443 | 0.541 | 0.535 | 0.21 | 0.621 | 0.255
0.477 | 0.333 | 0.944 | QQLQGYIPSNY [FRK_Y99] | 0.437 | 0.671 | 0.382 | 0.623 | 0.473 | 0.647 | 0.314 | 0.47 | 0.356 | 0.633 | 0.329 | 0.49 | 0.475
0.82 | 0.547 | 0.739 | QRALLYEDTLF [UNC13D_Y56_A59T_YF] | 13.9 | 4.74 | 1.95 | 1.58 | 15.4 | 1.68 | 0.599 | 1.13 | 1.49 | 1.65 | 17.9 | 0.853 | 9.24
0.467 | 0.521 | 0.765 | QRIFQYIRSRF [DYRK1B_Y273_Q275R_YF] | 0.795 | 1.26 | 1.36 | 1.07 | 0.817 | 1.24 | 0.75 | 0.988 | 0.837 | 0.83 | 0.827 | 0.695 | 0.975
